We go through 1 molecule from paper PMC7718890.

Data set [1] addresses CarD K90A;MTB RNAP (WT) (Mycobacterium …, UniProt P9WJG3;P9WGZ1;P9WGY9;P9WGY7;P9WGY5 1-162;1-347;1-1178;1-1316;1-110, K90A|). Nature of the data set: competition (fluorescence polarization). To be noted: protein: recombinant;recombinant; tags: ;; copies: 1;2;1;1;1; blunt. A general note: Polarisation of emitted light reports the rotation of a fluorescent probe.
Data set [2] deals with CarD R47E;MTB RNAP (WT) (Mycobacterium …, UniProt P9WJG3;P9WGZ1;P9WGY9;P9WGY7;P9WGY5 1-162;1-347;1-1178;1-1316;1-110, R47E|). Nature of the data set: competition (fluorescence polarization). The settings on record: protein: recombinant;recombinant; tags: ;; copies: 1;2;1;1;1; blunt.

B1: rrnAP3 native 61 bp (dsDNA)
DNA 1: GATGACCGAACCTGGTCTTGACTCCATTGCCGGATTTGTATTAGACTGGCAGGGTTGCCCC
DNA 2: GGGGCAACCCTGCCAGTCTAATACAAATCCGGCAATGGAGTCAAGACCAGGTTCGGTCATC
Turning to B1, the Ki in data set [1] was determined as 85 ± 6 nM; in data set [2], 129 ± 14 nM.

As usually defined, the Ki is the dissociation constant of the complex between target and ligand, obtained from inhibition or displacement.
